One may read the Km as the substrate concentration at which the rate is half of its maximum. As usually defined, the kcat is the number of substrate molecules converted per active site and unit of time at saturation. Usually kcat/Km stands for the turnover number divided by the Michaelis constant.

Our source for the Km, kcat and kcat/Km values is article PMC5404360, “Identification of a Novel (-)-5-Epieremophilene Synthase from Salvia miltiorrhiza via Transcriptome Mining” (Frontiers in Plant Science, 2017).

Assay in all cases: GC-MS product quantification, Michaelis-Menten fit
Common to all, as to format: biochemical, Salvia miltiorrhiza
Common to all, as to conditions: Mg2+ (5 mM MgCl2), 25 mM HEPES pH 7.0, 5 mM DTT, 30°C, 5 min, FPP 2.3-184.6 μM

Substrate in data set [1]: CC(C)=CCC/C(C)=C/CC/C(C)=C/CO[P@@](=O)(O)OP(=O)(O)O
The text has this: GC-MS product quantification, Michaelis-Menten fit on […]2

Substrate in data set [2]: CC(C)=CCC/C(C)=C/CC/C(C)=C/CO[P@@](=O)(O)OP(=O)(O)O
The text has this:
GC-MS product quantification, Michaelis-Menten fit on […]3
The source holds these as a separate data set.

Substrate in data set [3]: CC(C)=CCC/C(C)=C/CC/C(C)=C/CO[P@@](=O)(O)OP(=O)(O)O
From the text:
GC-MS product quantification, Michaelis-Menten fit on […]1
The source holds these as a separate data set.

B1: SmSTPS2 (Salvia miltiorrhiza) (protein)
chain: MATTQVEIQRPIANFSPSLWGDQFIKNDSGAKAAEKHCKAVEELKKEVMNMITAGGSNLVEAMNLIDTLERLGISYHFEKEIDQKLNHFFNLNTDYSDEFYDLYTVSLHFRLFRQHGHRISSDIFGRWIDESGKFKEGLKTDGKGLLSLYEASYLRTRGETILDDALEFATATLNSIAPHLESPLSKQVVHALIQPLHYGNPRIEAHNFISIYEENQDKNEFLLKFAKLDYNLLQMLHKEELHEVSRWWKELDLVSKLPYARDRVVECFFWAMGVYHEPQYSRARIMLTKTITMTSIIDDTYDAYGVIEELDIFTEAIERWNIEEMDRLPEYVKPFYKALLELYEQFEEELAEEGRSYAAHYAIESLKELVRSYHVEAKWFIQGYLPPFEEYLKNALITCTYCYHTTTSLLGVESAVEEDFQWLAKKPKMLVAGLLICRVIDDIATYEVEKERGQSATGIESYMRDNNATIEEAVAKFFEIATDAWKDINEECLMPSPYSRDVLMRILNLERIIDVTYKGNEDGYTQPEKVLKPHIIALFVDPIKM
notes: full-length ORF, 546 aa, in pET-32a (N-terminal thioredoxin/His tag fusion, kept), E. coli Rosetta (DE3), Ni-NTA purified
Take B1: in data set [1], the Km turned out to be 24.20 ± 0.84 µM, the kcat stood at 2.07 ± 0.13 s⁻¹ and the kcat/Km stood at 85600 ± 38200 M⁻¹ s⁻¹.

B2: SmSTPS3 (Salvia miltiorrhiza) (protein)
chain: MATTQVEIQRPIANFSPSLWGDQFIKNDSGAKAAEKHCKAVEELKKEVMNMITAAESNLVEAMNLIDTLERLGISYHFEKEIDQKLNHFFSLNTDYSDESYDLYTVSLHFRLFRQHGHRISSDIFGRWIDESGKFKEGLKTDGKGLLSLYEASYLRTRGETILDDALEFATATLNSIAPHLESPLSKQVVHALIQPLHYGNPRIEAHNFISIYEENQDKNEFLLKFAKLDYNLLQMLHKEELHEVSRWWKELDLVSKLPYARDRVVECFFWAMGVYHEPQYSRARIMLTKTITMTSIIDDTYDAYGVIEELDIFTEAIERWNIEEMDRLPEYVKPFYKALLELYEQFEEELAEEGRSYAAHYAIESLKELVRSYHVEAKWFIQGYLPPFEEYLKNALITCTYCYHTTTSLLGVESAVEEDFQWLAKKPKMLVAGLLICRVIDDIATYEVEKERGQSATGIESYMRDNNATIEEAVAKFFEIATDAWKDINEECLMPSPYSRDVLMRILNLERIIDVTYKGNEDGYTQPEKVLKPHIIALFVDPIKM
notes: as for B1
Consider B2, for which, in data set [2], the Km came to 10.44 ± 1.07 µM, the kcat is 1.53 ± 0.02 s⁻¹ and the kcat/Km was determined as 148000 ± 13200 M⁻¹ s⁻¹.

B3: SmSTPS1 (Salvia miltiorrhiza) (protein)
chain: MATTQAQIQRPIANFSPSLWGDQFIKNDPGAKAAEKHCKAVEELKKEVMNMITAAGSNLVEAMNLIDTLERLGISYHFEKEIDQKLKHFFNLNKDYSDESYDLYTVSLHFRLFRQHGHRISSDIFGRWIDESGKFKEGLKTDGKGLLSLYEASYLRTRGETILDDALEFATATLNSIAPHLESPLSKQVVHALIQPLHYGNPRIEAHNFISIYEENQDKNEFLLRFAKLDYNLLQMLHKEELNEVSRWWKELDLVSKLPYARDRVVECFFWAMGVYHEPQYSRARIMLTKTITMTSIIDDTYDAYGVIEELDIFTEAIERWNMEEMKKLPEYIQPFYKALLELYEQFEEELAEEGRSYAAHYAIESLKELVRSYHVEAKWFIQGYLPPFEEYLKNALITCTYCYHTTTSLLGVESAVEEDFEWLANKPKMLVAGLLICRVIDDIATYEVEKERGQSATGIESYMRDNNATIEEAVAKFFEIATDAWKDINEECLMPSPYSRDVLMRILNLERIIDVTYKGNEDGYTQPEKVLKPHIIALFVDPIKM
notes: as for B1
Consider B3, for which, in data set [3], the Km was found to be 25.35 ± 1.88 µM, the kcat was found to be 2.09 ± 0.05 s⁻¹ and the kcat/Km came to 82700 ± 40600 M⁻¹ s⁻¹.
